Key:
h CD22-His (human) = h CD22-His (human) (UniProt P20273); assay: BLI (Fortebio)
CD22-his (human) = CD22-his (human) (UniProt P20273); assay: ELISA

- Kd (h CD22-His (human)): 0.86 nM
- EC50 (CD22-his (human)): 0.195 nM
Substance: M971

Source: patent publication US20230331840A1
